Laboratory results from patent US20240307507A1, “LACTOFERRIN COMPOSITIONS AND METHODS OF USE” (LACTEA THERAPEUTICS LLC, priority 2021, published 2024).

B1: API-E2: purified bovine lactoferrin from raw, untreated milk produced according to Example 1 (protein)
chain: APRKNVRWCTISQPEWFKCRRWQWRMKKLGAPSITCVRRAFALECIRAIAEKKADAVTLDGGMVFEAGRDPYKLRPVAAEIYGTKESPQTHYYAVAVVKKGSNFQLDQLQGRKSCHTGLGRSAGWIIPMGILRPYLSWTESLEPLQGAVAKFFSASCVPCIDRQAYPNLCQLCKGEGENQCACSSREPYFGYSGAFKCLQDGAGDVAFVKETTVFENLPEKADRDQYELLCLNNSRAPVDAFKECHLAQVPSHAVVARSVDGKEDLIWKLLSKAQEKFGKNKSRSFQLFGSPPGQRDLLFKDSALGFLRIPSKVDSALYLGSRYLTTLKNLRETAEEVKARYTRVVWCAVGPEEQKKCQQWSQQSGQNVTCATASTTDDCIVLVLKGEADALNLDGGYIYTAGKCGLVPVLAENRKSSKHSSLDCVLRPTEGYLAVAVVKKANEGLTWNSLKDKKSCHTAVDRTAGWNIPMGLIVNQTGSCAFDEFFSQSCAPGADPKSRLCALCAGDDQGLDKCVPNSKEKYYGYTGAFRCLAEDVGDVAFVKNDTVWENTNGESTADWAKNLNREDFRLLCLDGTRKPVTEAQSCHLAVAPNHAVVSRSDRAAHVKQVLLHQQALFGKNGKNCPDKFCLFKSETKNLLFNDNTECLAKLGGRPTYEEYLGTEYVTAIANLKKCSTSPLLEACAFLTR
B2: heat-treated API-E2 Lactoferrin: API-E2 Lactoferrin heated across a range of 50-100° C. (protein, UniProt P24627 20-708, looked up)
Lactotransferrin: B1 chain
modifications: heat-treated
B3: Lactoferrin (“Reagent”): purchased laboratory reagent grade Lactoferrin [Sigma Bovine Colostrum Lactoferrin] (protein, UniProt P24627 20-708, looked up)
Lactotransferrin: B1 chain

Assays:
[1] = ELISA antibody binding of Lactoferrin; settings: same amount of protein by weight loaded
Procedure: Lactoferrin percentage can be assessed by an enzyme-linked immunosorbent assay (ELISA). In some instances, an ELISA can distinguish the percentage of Lactoferrin in a native protein conformation, such as by using an antibody that specifically binds the native protein conformation of Lactoferrin.
Lactoferrin purity was also assessed by ELISA.

[2] = system: ECM of primary buccal cells; assay: Lactoferrin ECM association by immunofluorescence, primary buccal cells; type: cell-based; settings: 100 ug/mL, 1 hr, 37 C
Procedure: Primary buccal cells were next cultured according to a standard protocol (e.g., see Russo et al. Cytotechnology. 2016 October; 68(5): 2105-2114; herein incorporated by reference for all purposes). […] Immunofluorescence imaging was performed as previously described.

SARS-COV-2 = SARS-COV-2 Cytopathic Effect (CPE) reduction assay in Vero E6 cells; type: cell-based; settings: Vero E6 cells, neutral red, three days post-infection
[3] = Differential Scanning Calorimetry (DSC) unfolding of apolactoferrin and hololactoferrin forms; type: physicochemical
Procedure: The assay was also performed with heat-treated API-E2 Lactoferrin. API-E2 Lactoferrin was heated across a range of 50-100° C.

[4] = DSC iron binding capability with excess iron chloride; settings: iron chloride in 1000× molar excess
Procedure: The DSC assay was further used to assess Lactoferrin bioactivity, specifically the iron binding capability of the API-E2 Lactoferrin. Iron chloride (FeC13) was added in 1000× molar excess to API-E2 Lactoferrin. In the presence of excess iron, the API-E2 lactoferrin will bind the iron to its open iron binding site.

[5] = system: Salivary bacteria (including Lactobacillus, Lactococcus, and Streptococcus mutans); assay: Salivary bacteria acid production by pH testing; type: cell-based; settings: with sucrose, start pH 7, entire 6 hour period
Procedure: Salivary bacteria (including Lactobacillus, Lactococcus, and Streptococcus mutans) produce acid during growth. This acidification is strongly associated with tooth decay, particularly when it results in pH below 5.5, which is a clinically relevant threshold. A slurry of these bacteria were treated with sucrose to stimulate growth, as well as varying concentrations of API-E2 lactoferrin. Upon the addition of sucrose and API-E2 lactoferrin, the pH was adjusted to 7 through a titration and the change in pH was subsequently monitored over the next 6 hours.

E. coli = assay: Zone of inhibition test; type: cell-based
Procedure: A zone of inhibition test was performed to assess bioactivity of API-E2 Lactoferrin. A plate with E. coli was cultured with 100 μg/mL, 10 μg/mL, 1 μg/mL, and 0.1 μg/mL API-E2 Lactoferrin added to paper circles and allowed to diffuse out.

lactoperoxidase (LPO) = assay: Enzymatic colour assay for lactoperoxidase (LPO) activity; type: biochemical; settings: colorimetric peroxidase substrate turning blue
Text: An enzymatic assay for lactoperoxidase (LPO) activity was developed utilizing a molecule which in the presence of peroxidase activity turns a blue color.

| Molecule | increase in antibody binding relative to existing research standards [1] [%] | ECM association of Lactoferrin [2] | EC50 (SARS-COV-2) [nM] | Delta H, apolactoferrin peak ([3]; 10 mg/mL) [kJ/mol] | Delta H, hololactoferrin peak ([3]; 10 mg/mL) [kJ/mol] | % of Total, apolactoferrin ([3]; native sample without added iron) | available Apolactoferrin shifted to the Hololactoferrin form [4] [%] | pH maintained over testing period ([5]; 1 mg/mL) | pH maintained over testing period ([5]; 10 mg/mL) | zone of inhibition (E. coli; 0.1 μg/mL on paper circles) | zone of inhibition (E. coli; 1 μg/mL on paper circles) | zone of inhibition (E. coli; 10 ug/mL on paper circles) | zone of inhibition (E. coli; 100 μg/mL on paper circles) | LPO enzymatic activity in the sample (lactoperoxidase (LPO)) | DSC apolactoferrin and hololactoferrin peaks detected ([3]; same conditions as API-E2) | estimated ratio of the apolactoferrin to hololactoferrin peak [3] | Tm, apolactoferrin peak ([3]; 10 mg/mL) [C] | Tm, hololactoferrin peak ([3]; 10 mg/mL) [C] |
| --- | --- | --- | --- | --- | --- | --- | --- | --- | --- | --- | --- | --- | --- | --- | --- | --- | --- | --- |
| B1 | 30 | strong binding along the ECM | 90 | 466.1 ± 9.2 | 632.7 ± 7.2 | 91.26 +/− 1.39% ^ | 100 | above 5.5 | above 5.5 | No zone of inhibition | limited zone of inhibition | complete inhibition | complete inhibition | neither detected |  |  |  |  |
| B2 |  |  |  |  |  |  |  |  |  |  |  |  |  |  | loss in both detectable peaks |  |  |  |
| B3 |  | only limited ECM association | 140 |  |  |  |  |  |  |  |  |  |  | does not result in a positive enzymatic reaction |  | nearly equal | 55 | 85 |
